Results from publication PMC9674614 (Nature Communications, 2022).

Tests used:
[1] = molecular target: vaccinia virus protein C4, full length, from baculovirus (vaccinia virus strain Western Reserve (WR)); assay: SEC
[2] = molecular target: C-terminal domain of vaccinia virus C16 (vaccinia virus strain Western Reserve (WR)) (UniProt P03296); assay: SEC; C16-C alone
[3] = molecular target: the molecule itself; assay: SEC
[4] = molecular target: the molecule itself; assay: mass photometry; purified recombinant C16 alone

**Q.** Which stoichiometry N [1] does the source give for “vaccinia virus protein C4, full length, from baculovirus (natural protein)” here?
**A.** 2

**Q.** How did the stoichiometry N [2] turn out when “C-terminal domain of vaccinia virus C16 (from UniProt P03296) (domain or fragment)” was run?
**A.** 2

B1: vaccinia virus (strain Western Reserve) protein C16, full length, from E. coli (natural protein)
chain: MDIYDDKGLQTIKLFNNEFDCIRNDIRELFKHVTDSDSIQLPMEDNSDIIENIRKILYRRLKNVECVDIDSTITFMKYDPNDDNKRTCSNWVPLTNNYMEYCLVIYLETPICGGKIKLYHPTGNIKSDKDIMFAKTLDFKSKKVLTGRKTIAVLDISVSYNRSMTTIHYNDDVDIDIHTDKNGKELCYCYITIDDHYLVDVETIGVIVNRSGKCLLVNNHLGIGIVKDKRISDSFGDVCMDTIFDFSEARELFSLTNDDNRNIAWDTDKLDDDTDIWTPVTEDDYKFLSRLVLYAKSQSDTVFDYYVLTGDTEPPTVFIFKVTRFYFNMPK
notes: also called VACV-C16; FLC16
**Q.** Which results are given for B1?
**A.** stoichiometry N [3]: 2; stoichiometry N [4]: 4
